Experimental data as given in paper PMC5300155, “Biochemical and biophysical investigations of the interaction between human glucokinase and pro-apoptotic BAD” (PLoS ONE, 2017).
Changes are numbered by the printed parent chain. Names may count otherwise.

T1: human pancreatic GCK (Homo sapiens, UniProt P35557)
T1 construct: hexahistidine (N); made in house; host or cells: glucokinase auxotroph BM5340(DE3)
T1 sequence (P35557 1-465): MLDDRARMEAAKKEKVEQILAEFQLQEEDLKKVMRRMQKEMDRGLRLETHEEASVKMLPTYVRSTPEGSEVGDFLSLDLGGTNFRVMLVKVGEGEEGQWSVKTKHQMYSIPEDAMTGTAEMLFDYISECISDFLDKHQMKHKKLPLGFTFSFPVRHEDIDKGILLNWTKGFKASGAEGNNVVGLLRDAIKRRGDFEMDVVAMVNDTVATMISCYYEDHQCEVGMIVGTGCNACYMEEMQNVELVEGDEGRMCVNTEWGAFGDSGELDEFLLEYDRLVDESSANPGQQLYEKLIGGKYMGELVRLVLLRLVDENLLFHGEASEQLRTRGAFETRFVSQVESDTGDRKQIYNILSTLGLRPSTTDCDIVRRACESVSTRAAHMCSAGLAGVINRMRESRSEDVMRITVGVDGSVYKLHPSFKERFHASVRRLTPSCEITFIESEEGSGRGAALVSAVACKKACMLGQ

T2: GCK (Homo sapiens, UniProt P35557)
T2 construct: hexahistidine (N); made in house; host or cells: glucokinase auxotroph BM5340(DE3)
T2 sequence (P35557 1-465): T1 sequence (P35557 1-465)

B1: S75D-S99D-S118D triple variant of BAD-GST (natural protein, human, UniProt Q92934 1-168, looked up)
chain: MFQIPEFEPSEQEDSSSAERGLGPSPAGDGPSGSGKHHRQAPGLLWDASHQQEQPTSSSHHGGAGAVEIRSRHSDYPAGTEDDEGMGEEPSPFRGRSRDAPPNLWAAQRYGRELRRMDDEFVDSFKKGLPRPKSAGTATQMRQSSSWTRVFQSWWDRNLGRGSSAPSQ
notes: BAD, human; 507 bp bad cDNA amplified from the IMAGE clone; triple phosphomimic; also called 3SD; source: E. coli BL21(DE3), purified as BAD-GST; not shown: GST, C-terminal, kept
B2: S75D-S99D-S118D triple variant of BAD-GST: S75D-S99D-S118D triple variant of BAD-GST, mimics fully phosphorylated protein (protein)
chain: B1 chain
modifications: left off: His6, N-terminal, state not stated | GST, C-terminal, kept
notes: S75D-S99D-S118D triple variant of BAD-GST, mimics fully phosphorylated protein
B3: phosphorylated BAD: phosphorylated BAD after cleavage of the GST tag (protein)
chain: B1 chain with D75S, D99S, D118S
modifications: phosphoserine at 75, 99 and 118 (by PKA, as for phosphorylated BAD-GST); left off: His6, N-terminal, state not stated | GST, C-terminal, cleaved
notes: phosphorylated BAD after cleavage of the GST tag
B4: S118D variant: S118D phosphomimic variant of BAD-GST (protein)
chain: B1 chain with D75S, D99S
modifications: left off: His6, N-terminal, state not stated | GST, C-terminal, kept
B5: 3SA: BAD-GST variant in which alanine was substituted at the three target serine residues (protein)
chain: B1 chain with D75A, D99A, D118A
modifications: left off: His6, N-terminal, state not stated | GST, C-terminal, kept
notes: BAD-GST variant in which alanine was substituted at the three target serine residues
B6: S118D BAD-GST variant (natural protein, human, UniProt Q92934 1-168, looked up)
chain: B1 chain with D75S, D99S
notes: BAD, human; 507 bp bad cDNA amplified from the IMAGE clone; phosphomimic; also called S118D variant; BAD-GST S118D; source: E. coli BL21(DE3), purified as BAD-GST; not shown: GST, C-terminal, kept
B7: S75D-S99D double variant of BAD-GST (natural protein, human, UniProt Q92934 1-168, looked up)
chain: B1 chain with D118S
notes: BAD, human; 507 bp bad cDNA amplified from the IMAGE clone; double phosphomimic; source: E. coli BL21(DE3), purified as BAD-GST; not shown: GST, C-terminal, kept

Tests used:
[1] = target: recombinant human Bcl-xL, Δ45–84, Δ210–233 variant (human) (UniProt Q07817); test: fluorescence polarisation; competition: 200 nM f-BH3, 50 nM Bcl-xL, BAD forms varied 0–50 μM; room temperature
recombinant human Bcl-xL, Δ45–84, Δ210–233 variant (human), sequence (Q07817 other isoform, or with tags, fused parts or gaps mutant): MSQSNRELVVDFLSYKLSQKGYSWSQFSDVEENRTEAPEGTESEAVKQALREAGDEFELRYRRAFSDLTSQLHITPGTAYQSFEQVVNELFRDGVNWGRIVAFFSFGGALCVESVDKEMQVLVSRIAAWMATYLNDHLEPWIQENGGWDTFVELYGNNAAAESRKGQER

[2] = target: T3, recombinant human Bcl-xL, Δ45–84, Δ210–233 variant (human, UniProt Q07817-1 1-209, Δ45–84); test: as above; conditions: both partners purified
T3 construct: Bcl-xL, human; loop 45-84 deleted and C-terminal residues 210-233 lacking; also called soluble, recombinant Bcl-xL
T3 sequence (Q07817 other isoform, or with tags, fused parts or gaps Δ45–84 | Δ45–84 | mutant): as the sequence (Q07817 other isoform, or with tags, fused parts or gaps mutant) above

human pancreatic GCK [3] = target: T1, human pancreatic GCK; test: GCK activity, G6PDH-linked assay (lab's routine assay, 25°C); format: biochemical; conditions: for Increase in GCK activity relative to unmodified / wild-type protein: only at glucose concentrations below K0.5 (3SD, 3SA), phosphorylated BAD after cleavage of GST tag
Protocol: (§1) Recombinant human pancreatic GCK containing an N-terminal hexahistidine tag was produced in the glucokinase auxotroph BM5340(DE3) and purified using a previously described procedure. TEV protease was expressed as a GST-fusion protein from a pGEX plasmid encoding the S219V variant, provided by David Waugh (Addgene plasmid 8827). Expression was induced with IPTG (1 mM) for 4 h at 30°C. Cell pellets were resuspended in Tris buffer (50 mM, pH 8.0) containing NaCl (100 mM), glycerol (10% v/v), benzamidine (1 mM) and dithiothreitol (10 mM) and lysed via French Press. Polyethyleneimine (0.1%) was added to the lysate and protein was purified on a glutathione-affinity column (GSTrap, GE Sciences). TEV protease was flash frozen and stored at -80°C for up to 1 month.
GCK activity was assayed using a glucose 6-phosphate dehydrogenase (G6PDH)-linked assay at 25°C. 50 nM GCK was assayed in buffer containing HEPES (100 mM, pH 7.4), KCl (50 mM), NADP^+ (0.5 mM), DTT (10 mM), MgCl2 (7 mM), G6PDH (1.5 U) and glucose (0–100 mM) in a total volume of […]. Addition of ATP (6 mM) initiated the reaction. Production of NADPH was measured at 340 nm. To determine the effect of BAD on GCK activity, 5 μL of BAD or buffer control was added to the reaction in a final volume of 100 μL. K0.5 values were determined by fitting to the Hill equation. The effect of BAD on GCK activity is reported as the percent rate increase at individual glucose concentrations, calculated as the average of a minimum of four rates of BAD-containing assays divided by the average of rates of BAD buffer-containing assays. The results represent the average of at least three independent preparations of pure BAD.

human pancreatic GCK [4] = target: T1, human pancreatic GCK; test: Isothermal titration calorimetry with GCK; format: binding; conditions: GCK (100 μM) titrated into S118D BAD-GST (10–15 μM), 13 μL injections, BAD buffer pH 8.5, 25°C
Protocol: as §1
Isothermal titration calorimetry was performed at 25°C using a MicroCal VP-ITC (GE Healthcare) instrument. Bcl-xL (100 μM) in BAD buffer (0.1 M Tris, 0.1 M KCl, 0.5 M arginine, 2.5 mM CHAPS, 5 mM TCEP, 10% glycerol, pH 8.5) was titrated into the calorimeter cell containing size-exclusion chromatography purified BAD-GST (10–18 μM) in 4 μL injections. A 21-residue phosphorylated peptide containing the BH3 domain of BAD was synthesized and purified to >95% by Peptide2.0 (pBH3 = NLWAAQRYGRELRRM(p)SDKFVD). The peptide (300 μM) in potassium phosphate buffer (25 mM) containing KCl (25 mM), TCEP (4 mM) and DMSO (5%) with and without glucose (200 mM) was titrated into the cell containing GCK (10 μM) previously dialyzed against the same buffer. GCK (100 μM) in BAD buffer was titrated into the cell containing S118D BAD-GST (10–15 μM) in 13 μL injections. Data were analyzed using Origin software.

Bcl-xL = target: T4, Bcl-xL (Homo sapiens, UniProt Q07817, DEL45-84); test: Fluorescence polarization competition with f-BH3 for binding to Bcl-xL; conditions: ITC and fluorescence polarization assays
T4 construct: made in house
T4 sequence (Q07817 with tags, fused parts or gaps DEL45-84): as the sequence (Q07817 other isoform, or with tags, fused parts or gaps mutant) above
Protocol: Exon 1 of human bcl-xl lacking the C-terminal residues 189–233 was obtained from Stanley Korsmeyer (Addgene plasmid 8755) and site-directed mutagenesis was performed to create the Δ45–84, Δ210–233 variant. Bcl-xL was expressed and purified using a modified procedure described previously. Briefly, Bcl-xL was purified by nickel affinity chromatography and dialyzed against potassium phosphate buffer (20 mM, pH 7.4) containing NaCl (50 mM), EDTA (1 mM), and DTT (10 mM). Protein was applied to a Superdex 200 10/30 HR size-exclusion column, at a flow rate of 0.02 mL/min, to remove aggregate and oligomers prior to binding assays.
A fluorescence polarization assay developed by Zhang, et al. was utilized to measure interactions between BAD and its binding partners. Two 21-residue FITC-labeled peptides containing the BH3 domain of BAD were synthesized and purified to >95% by Peptide2.0 (f-BH3 = NLWAAQRYGRELRRMSDK(FITC)FVD; f-pBH3 = NLWAAQRYGRELRRM(p)SDK(FITC) FVD). Polarization was measured at room temperature with an excitation wavelength of 485 nm and an emission wavelength of 530 nm using a SpectraMax M5 microplate reader (Molecular Devices). Experiments to measure binding constants of the fluorescent peptides to Bcl-xL or GCK were performed in black 96-well plates. Each well contained 15 nM peptide, 60 μL BAD buffer (0.1 M Tris, 0.1 M KCl, 0.5 M arginine, 2.5 mM CHAPS, 5 mM TCEP, 10% glycerol, pH 8.5) and variable concentrations of Bcl-xL (0–2.25 μM) or GCK (0–400 μM) in assay buffer (20 mM phosphate buffer, pH 7.4, 1 mM EDTA, 50 mM NaCl, 10 mM DTT) in a final volume of 120 μL. High GCK concentrations were chosen in an effort to detect a signal indicating a binding event. Assays containing GCK also contained 250 mM glucose. […] Plates were incubated at room temperature in the dark for 15 min prior to polarization measurements.

GCK = target: T2, GCK; test: GCK activity, microplate G6PDH-linked assay as described by Szlyk et al. (37°C); format: biochemical; conditions: S118D BADGST 5 μM, or pBH3 5 μM; GCK 7.5 nM, 96 well plate; S2 Fig
Protocol: Steady state kinetics were also performed as described by Szlyk, et al.[13]. Briefly, G6PDH-linked assays were performed in clear 96-well plates at 37°C with a SpectraMax M5 microplate reader (Molecular Devices) recording absorbance at 340 nm every 30 s. Reaction mixtures contained GCK (7.5 nM), HEPES (100 mM, pH 7.4), KCl (150 mM), MgCl2(6 mM), DTT (1 mM), NAD (1 mM), BSA (0.05%), G6PDH (2.5 U), glucose (0.5–100 mM), and ATP (5 mM) in the presence or absence of BAD-GST S118D variant (5 μM) or phosphorylated BAD BH3 peptide (5 μM) in a final volume of 100 μL.
GCK (7.5 nM) was assayed in the presence of A. S118D BADGST (5 μM) or B. pBH3 (5 μM) in a 96 well plate using a microplate reader. Buffer conditions were as follows: Ref [13]: 100 mM Hepes, pH 7.4; 150 mM KCl; 1 mM NAD+; 0.05% BSA; 6 mM MgCl2; 1 mM DTT; 2.5 U G6PDH; 5 mM ATP. Optimal GCK conditions: 100 mM Hepes, pH 7.4; 150 mM KCl; 1 mM NADP+; 6 mM MgCl2; 10 mM DTT; 1.5 U G6PDH; 5 mM ATP. (EPS) Click here for additional data file.

| Molecule | IC50 [2] [nM] | Increase in GCK activity relative to unmodified / wild-type protein (human pancreatic GCK [3]) | other results |
| --- | --- | --- | --- |
| BAD following cleavage and removal of the GST tag (from UniProt Q92934 1-168) (natural protein) | – | – | IC50 [1]: 440 nM |
| B1 | > 19000 | – | – |
| B2 | – | to the same relative extent as wild-type BAD-GST | Activation of GCK by triple variant (human pancreatic GCK [3]; 0.78 mM glucose, > 2 μM, comparable to phosphorylated BAD (15%)): A comparable degree of activation |
| B3 | – | to a similar extent as unmodified BAD | – |
| B4 | – | – | Binding to GCK by ITC (human pancreatic GCK [4]): no detectable binding event; Ability to interact with Bcl-xL (in words) (Bcl-xL): significantly impaired in their ability to interact with Bcl-xL; Effect on GCK kinetics under Szlyk et al. buffer conditions (GCK): did not increase BAD’s effects on GCK kinetics |
| B5 | – | to the same relative extent as wild-type BAD-GST | – |
| B6 | > 15000 | – | – |
| B7 | 87 | – | – |
